Measured values published in patent US11274129B2, “Methods for protein tyrosine phosphorylation profiling with variant SH2 domains” (priority 2016, dated 2022).

Test system: pTyr-including peptides from pervanadate-treated Jurkat cells
Test: Enrichment of pTyr-including peptides from pervanadate-treated Jurkat cells by affinity reagents, 1D LC-MS/MS
Set-up: species or system human
Conditions: 3 mg Jurkat peptides
Protocol: Experiments were conducted to determine the relative efficacy of the variant Src SH2 domains and commonly used anti-pTyr antibodies as affinity reagents for pTyr-including peptides from biological samples. His6/GST-tagged TrM Src SH2 domain (SEQ ID NO: 11) and His6-tagged QuadM Src SH2 domain (SEQ ID NO: 13), as well as anti-pTyr antibodies, were prepared in functionally-equivalent molar amounts by using half the molar amount of the antibodies relative to the SH2 domain variants given that each antibody molecule has two binding sites for its antigen.
The first experiment tested the relative ability of the following affinity reagents to extract pTyr-including peptides from a peptide mixture prepared from Jurkat cells: a His6/GST-tagged TrM Src SH2 (SEQ ID NO: 11), a His6-tagged QuadM Src SH2 (SEQ ID NO: 13), the anti-pTyr antibody 4G10 (agarose conjugate, obtained from Millipore), and a mixture of commercially-available anti-pTyr antibodies. […] The two SH2 affinity reagents were also tested at a 30× amount; the antibodies were not tested at a 30× amount due to the prohibitive cost of doing so. The purified SH2 affinity reagents were prepared as described in Example 1. The antibody mixture contained 4G10 (as above), PY99 (obtained from Santa Cruz Biotechnology), and P-Tyr-100 (slurry of PTMScan® Phospho-Tyrosine Mouse mAb, obtained from Cell Signaling Technology). Since the concentration of P-Tyr-100 is unknown, the amount was used as recommended by the vendor (i.e., 4 μL for 1 mg peptide digest).
FIG. 2A presents a schematic of the experimental design. Each amount of His6-tagged SH2 domain variant or antibody was subjected to a binding experiment with 3 mg of a peptide mixture prepared from pervanadate-treated Jurkat cells.
Jurkat cells (obtained from ATCC) were cultured in a humidified atmosphere of 5% CO2 at 37° C. in Roswell Park Memorial Institute 1640 medium (RPMI-1640) supplemented with 10% bovine serum and 100 U/mL of streptomycin and penicillin.
The cells were again collected by centrifugation. The cell pellets were gently homogenized in an ice-cold lysis buffer containing 8 M urea, 50 mM tris(hydroxymethyl)aminomethane (Tris)-HCl (pH 7.4), 2% protease inhibitor cocktail (v/v, obtained from Sigma-Aldrich), 1% Triton X-100 (v/v), 1 mM NaF, and 1 mM Na3VO4, followed by sonication at 400 W for 120 s. After centrifugation at 25,000 g for 1 h, proteins were precipitated in ice-cold acetone/ethanol/acetic acid (50/50/0.1, V/V/V) solution. Subsequently, the proteins were diluted in reducing buffer containing 100 mM triethylammonium bicarbonate (TEAB) buffer (pH 8.2) and 8 M urea, and the final protein concentration was determined by Bradford assay. The protein suspension was reduced in 10 mM dithiothreitol (DTT) at 37° C. for 2 h, and it was then alkylated in 20 mM iodoacetamide (IAA) in darkness at room temperature for another 30 min. Trypsin digestion was performed at 37° C. overnight with an enzyme-to-protein ratio of 1/25 (w/w). The resulting peptide mixture was stored at −80° C. for further analysis.
Desalted Jurkat peptides (30 mg) were dissolved in ice-cold immunoaffinity purification (IAP) buffer and then split into 10 aliquots with 3 mg of Jurkat peptides each. Binding experiments were performed with the amounts of antibody (1×, 5×) or SH2 domain variant (1×, 5×, 30×) set out in Table 1 and FIG. 2A.
For antibody-based enrichment, 4G10 or the antibody mixture was incubated with the sample at 4° C. overnight while rotating. The beads were washed three times with ice-cold IAP buffer and twice with ice-cold water. To release the bound peptides, the beads were eluted twice with 200 μL 0.15% trifluoroacetic acid (TFA) for 15 min at room temperature.
For SH2-based enrichment, Ni-NTA beads containing the purified SH2 proteins were washed extensively in twenty column volumes of PBS buffer (pH 7.0) containing 20 mM imidazole. […] The washed beads were incubated with the peptide mixture at 4° C. overnight while rotating. […]

B1: Triple mutant: TrM human Src SH2 domain variant with Thr183Val, Cys188Ala and Lys206Leu; His6/GST-tagged form SEQ ID NO: 11 (protein)
chain: DSIQAEEWYFGKITRRESERLLLNAENPRGTFLVRESETVKGAYALSVSDFDNAKGLNVKHYLIRKLDSGGFYITSRTQFNSLQQLVAYYSKHADGLCHRLTTVCPTSK
modifications: SH2 protein domain; TrM human Src SH2 domain
0.375 nmol (1x) pTyr-binding sites
  Number of pTyr sites identified: 578
1.875 nmol (5x) pTyr-binding sites
  Number of pTyr sites identified: 1060
11.25 nmol (30x) pTyr-binding sites
  Number of pTyr sites identified: 1165
